Data as given in article PMC8269243.

Target: TYLCV coat protein (CP) in viruliferous whiteflies (tomato yellow leaf curl virus (TYLCV) isolate SH2)

Vitellogenin (Vg) of MEAM1 whitefly (Bta07851), endogenous (natural protein)
proportion of phase V midguts (TYLCV movement across the midgut, IFA) in Vg antibody-treated whiteflies after a 24-h AAP; control group 55%: 30%
reduction of the disease incidence rate of tomato plants in the Vg antibody treatment against the control, 15 days (27%) and 30 days (35%) posttransmission: 35%
